Patent US20220144937A1 (JIANGSU HENGRUI MEDICINE, published 2022)
Numbering of substitutions follows the chain as printed.

Columns and labels:
[1] = biological target: T1, human IL-5 with his-tag (rhIL-5-his) (human, UniProt P05113 20-134); test: competition ELISA: IL-5 coated, biotin-IL-5Rα (10 µg/ml) as competitor, antibody diluted
T1 construct: It was expressed in HEK293 and purified from the supernatant; also called HuIL-5; recombinant human IL-5
T1 sequence: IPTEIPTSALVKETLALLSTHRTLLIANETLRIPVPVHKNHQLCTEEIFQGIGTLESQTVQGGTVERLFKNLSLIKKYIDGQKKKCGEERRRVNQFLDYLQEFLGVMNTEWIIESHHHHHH
Method: To identify the ability of IL-5 antibody to block IL-5 from binding to the extracellular region of recombinantly expressed IL-5α receptor protein, IL-5 (5 μg/ml in PBS) was coated on an ELISA plate and incubated at 37° C. for 1 hour; the liquid was removed, 200 μl/well of 5% skimmed milk blocking solution diluted with PBS was added, and incubated for 2.5 hours in a 37° C. incubator for blocking. After blocking, the blocking solution was removed and the plate was washed with PBST buffer (pH 7.4 PBS comprising 0.05% Tween-20) for 5 times; 25 μl of 10 μg/ml IL-5Rα (in 1% BSA) labeled by a biotin labeling kit (Tojin Chemical, LK03) was added, and then 25 μl of gradient-diluted antibody was added (the antibody competed with IL-5Rα for the binding with IL-5) and incubated at 37° C. for 1 hour. After the incubation, the reaction solution in the microtiter plate was removed, the plate was washed for 5 times with PBST, added with 50 μl/well of Streptavidin-Peroxidase Polymer (Sigma, 52438-250UG) diluted with sample dilution solution at 1:600 and incubated for 1 hour at 37° C.

[2] = biological target: T1, human IL-5 with his-tag (rhIL-5-his); test: Biacore
Method: (§1) The affinity of the murine IL-5 antibody to be tested with human IL-5 was measured by Biacore T200 (GE) instrument.
(§2) The protein A biosensor chip was used to affinity capture of the molecules to be tested, and then the antigen (recombinant human and cyno IL-5 prepared in Example 1) flowed through the surface of the chip, and the reaction signal was detected in real time with the Biacore T200 instrument to obtain the binding and dissociation curves. After the dissociation of each experimental cycle was completed, the biosensor chip was washed and regenerated with glycine-hydrochloric acid regeneration solution (pH 1.5). BIA evaluation version 4.1 GE software was used to fit the data against (1:1) Langmuir model, and the affinity value was obtained and shown in Table 13.

cyno IL-5 with his-tag = biological target: T2, cyno IL-5 with his-tag (cyno (paragraph 156 says rhesus), UniProt P48093 20-134 (rhesus entry)); test: Biacore T200, antibody captured on protein A chip, antigen in flow, 1:1 Langmuir
T2 construct: also called rhesus IL-5 with His-tag; monkey IL-5
T2 sequence: T1 sequence with T7A, D80G
Method: as §1, §2

[3] = biological target: T1, human IL-5 with his-tag (rhIL-5-his); test: as above
Method: as §1, §2

B1: mAb1705 (antibody, V domains shown)
VH: EVQLVESGGGLVQPGRSLKLSCTASGFTFSHYYMAWVRQAPKKGLEWVTSISYEGDITYYGDSVKGRFTISRDNAKSTLYLQMNSLRSEDTATYYCASQTLRESFDYWGQGVMVTVSS
VL: DIQMTQSPSSMSVSLGDRVTITCRASQDIANYLSWYQQKIARSPKLVIYGTSNLEVGVPSRFSGSRSGSDYSLTINTLESEDTGIYFCLQDKEFPRTFGGGTRLELK
notes: Murine hybridoma antibody
- IC50 [1]: 0.42 µg/mL
- Kd [2]: 0.0727 nM
- Kd (cyno IL-5 with his-tag): 0.205 nM
- Kd [3]: 0.0727 nM

B2: mAb1706 (antibody, V domains shown)
VH: B1 VH with T23A, S52N, D56N, I57S, T58A, N84D, S98T, Q99E, F105L
VL: DIQMTQSPSSMSVSLGDRVTITCRASQDIGNYLSWYQQKLGKSPKLMIHSASNLEVGVPSRFSGSRSGSDYSLTINTLESEDPGIYFCLQHKQFPRTFGGGTKLELK
notes: Murine hybridoma antibody
- IC50 [1]: 0.4 µg/mL
- Kd [2]: 0.0383 nM
- Kd (cyno IL-5 with his-tag): 0.277 nM
- Kd [3]: 0.0383 nM
